The test system of series [1] is O=C(O)[C@H]1O[C@@H](Oc2ccc([N+](=O)[O-])cc2)[C@H](O)[C@@H](O)[C@@H]1O. Briefly: purified protein. To be noted: 37°C, at the enzyme's optimal pH (not given).
The subject of a further series is T1, BoGUS L2.
T1 construct: gene GUS; GH2, loop 2 class
Briefly: p-nitrophenol release, absorbance […] nm, Michaelis-Menten fit. Format: biochemical, Bacteroides ovatus. To be noted: 50 mM HEPES, 50 mM NaCl, pH 6.5, 37°C.

Substrate in the series “purified protein”: O=C(O)[C@H]1O[C@@H](Oc2ccc([N+](=O)[O-])cc2)[C@H](O)[C@@H](O)[C@@H]1O
In words: purified protein. Format: biochemical, Bacteroides uniformis. To be noted: 37°C, at the enzyme's optimal pH (not given).

One may read the Km as the concentration of substrate that gives half-maximal velocity. The term kcat denotes the maximal rate divided by the concentration of active sites.

On to “BfGUS mL1 (Bacteroides fragilis NCTC 9343)”, for which, in series [1], the Km was 460 ± 60 µM and the kcat was 23 ± 1 s⁻¹.

As for `O=C(O)[C@H]1O[C@@H](Oc2ccc([N+](=O)[O-])cc2)[C@H](O)[C@@H](O)[C@@H]1O` [PNPG, p-nitrophenyl-glucuronide], the Km in the series on BoGUS L2 came out at 930 ± 70 µM.

B1: BuGUS L2 (Bacteroides uniformis str. 3978 T3 ii) (protein)
chain: QRQTQTINDSWKFLKGECTAAADSAFDDSKWTSIHLPHTWNTDAYTEKDYYRGTGWYRRQLTLPQGWKEKQIILRLDAAGKSATIYINGKNVGEHAGGYTACSFNITPFLSFDTPNTLAVCVDNARQDIAPISGDFTFFGGIYRDVWLTAVPNQHFNLTNHGSDGLFISTPQVSEEQATLSIRGEVKNDAPEKATLELTHTIYRPDGTLLQTLKKNIQLKAGETYAFSNEATPVLKPELWTPETPRLYRVETTLRNRKTKTLLDQSNHYTAFRWFRFDGDEGFFLNGKPYKLRGICRHQDQKPIGPALTDEMHRRDFLLMKEMGANFIRISHYPQDDALLEMCDKLGMLAWEEIPIIDIVPNTPGYGDNCERNLREMIRQHYNHPSIITWGYMNEILLVTQRKYKTEAELKPVLERTLALANRLERVLKEEDSTRISTMAFHGSNSYNETGLSKITDIVGWNLYQGWYGGDLTGFEKFLAQQHQNHPTHPMIVSEYGAGSDKRLHSLHPRAFDFSIEYQQKYLEHYLPVLEDTPYICGGTHWNFIDFSSALRDESMPRINNKGLVYADRTPKDVYHYYQAAWRKDIPVLHIASRDWTDRAGVQQGNAPVYLPVKIYTNLSEVELFIDGISLGKQKTENYTATFEVPFSNRNPFLFAQGNYQGKTVQDGLRINFTPIPACLDANNLKGLELAVNVGSQCFFTSDESQLTWLPDQPYAAGSWGYIGGKEGTAQTEIQNTADGPLFQTLRNEIEGYRFDAPQGVYEIELLFTDIFRRNAGIAYQLDRNGQQENRESTFGISINGEVVEESLSPCKESGYFRALRKKYYITNDKEYIDIRFHSTSGTCFLNGIKLRNIY
notes: GH2, loop 2 class
Take B1: in “purified protein”, the Michaelis-Menten constant (Km) is 520 ± 60 µM and the kcat stood at 24 ± 1 s⁻¹.

For the origin of these results see paper PMC6712278, “Mouse Gut Microbiome-Encoded β-Glucuronidases Identified Using Metagenome Analysis Guided by Protein Structure” (mSystems, 2019).
